Blank lines part the entries; values can stand above or below the molecule they belong to.
Tests used:
Experiment in all cases: SEC
[1] = target: Parsonsia alboflavescens homospermidine synthase, double mutant V269I D273N (IXXXN motif) (Parsonsia alboflavescens)
[2] = target: Parsonsia alboflavescens homospermidine synthase, single mutant D273N (VXXXN motif) (Parsonsia alboflavescens)
[3] = target: Parsonsia alboflavescens homospermidine synthase, single mutant V269I (IXXXD motif) (Parsonsia alboflavescens)
SEC = target: the molecule itself

- stoichiometry N [1]: 4
Molecule: Parsonsia alboflavescens homospermidine synthase, double mutant V269I D273N (IXXXN motif) (enzyme)

- stoichiometry N [2]: 4
Molecule: Parsonsia alboflavescens homospermidine synthase, single mutant D273N (VXXXN motif) (enzyme)

- stoichiometry N [3]: 4
Molecule: Parsonsia alboflavescens homospermidine synthase, single mutant V269I (IXXXD motif) (enzyme)

B1: Parsonsia alboflavescens homospermidine synthase, wild type (VXXXD motif) (enzyme, UniProt A0A2P1M5T0 1-374, looked up)
chain: MGDDAIRQNFLDSARSNVFKALESLEGCKKIKGYDFNKGVNHRELLLSMVSTGFQASNLGDAIDVINQMRAWKLSDEPIPENCKEQEKDPKFRDSVRCKVFLGFTSNLISSGVRETIRYLAQHRMIDVLVTTAGGIEEDFIKCLAPTFKGDFSLPGAALRSKGLNRIGNLLVPNDNYCKFEDWIMPIFDKMLEEQLEEKVLWTPSRVIARLGKEINDESSYLYWAYKNKIPVYCPAITDGSIGDMLYFHSFRNPASLIVDIVQDVRNMDDEIVLAGLRKTGIIILGGGLPKHHICNANMMRNGADFAVFINTAQEFDGSDSGARPDEAISWGKIRSTAKHVKVHCDATIAFPLLVAETFAKGKSTWTKYLGYIY
- stoichiometry N (SEC): 4

From doi:10.1101/2023.04.01.535177 (bioRxiv, 2023)
